Experimental data as given in the Human Domainome abundance scans (Beltran et al. 2025).
± gives the uncertainty stated by the source.

B1: Histidine--tRNA ligase, cytoplasmic, residues 8 to 45; numbered along this chain, P12081 (parent)
chain: EELVKLQGERVRGLKQQKASAELIEEEVAKLLKLKAQL

Variants of: B1
Test: abundance fitness (aPCA) (normalised: wild type 0, dead -1); higher = more abundant; growth selection in yeast, the domain comes from the species named
Settings: Homo sapiens

Point of comparison: EELVKLQGERVRGLKQQKASAMLIEEEVAKLLKLKAQL [E22M], abundance fitness -0.046 ± 0.094. Against it:
- EELVKLQGERVRGLKQQKASAELINEEVAKLLKLKAQL [E25N] — within error, 0.055 ± 0.13
- EELVKLQGERVRGLKQQKASAELIKEEVAKLLKLKAQL [E25K] — within error, -0.001 ± 0.11
- EELVKLQGERVRGLKQQKASAELIPEEVAKLLKLKAQL [E25P] — within error, -0.208 ± 0.095
- EELVKLQGERVRGLKQQKASAELITEEVAKLLKLKAQL [E25T] — within error, -0.009 ± 0.081
- EELVKLQGERVRGLKQQKASAELIGEEVAKLLKLKAQL [E25G] — within error, -0.052 ± 0.077
- EELVKLQGERVRGLKQQKASAELIHEEVAKLLKLKAQL [E25H] — within error, 0 ± 0.09
- EELVKLQGERVRGLKQQKASAELIREEVAKLLKLKAQL [E25R] — within error, -0.064 ± 0.069
- EELVKLQGERVRGLKQQKASAELIMEEVAKLLKLKAQL [E25M] — within error, -0.184 ± 0.11
- EELVKLQGERVRGLKQQKASAELIQEEVAKLLKLKAQL [E25Q] — within error, 0.071 ± 0.097
- EELVKLQGERVRGLKQQKASAELILEEVAKLLKLKAQL [E25L] — lower, -0.484 ± 0.098
- EELVKLQGERVRGLKQQKASAELICEEVAKLLKLKAQL [E25C] — lower, -0.331 ± 0.16
- EELVKLQGERVRGLKQQKASAELIAEEVAKLLKLKAQL [E25A] — within error, 0.128 ± 0.091
- EELVKLQGERVRGLKQQKASAELISEEVAKLLKLKAQL [E25S] — within error, 0.032 ± 0.073
- EELVKLQGERVRGLKQQKASAELIEVEVAKLLKLKAQL [E26V] — within error, -0.116 ± 0.084
- EELVKLQGERVRGLKQQKASAELIEQEVAKLLKLKAQL [E26Q] — within error, 0.139 ± 0.093
- EELVKLQGERVRGLKQQKASAELIEKEVAKLLKLKAQL [E26K] — higher, 0.184 ± 0.092
- EELVKLQGERVRGLKQQKASAELIELEVAKLLKLKAQL [E26L] — the same, -0.046 ± 0.067
- EELVKLQGERVRGLKQQKASAELIEAEVAKLLKLKAQL [E26A] — higher, 0.263 ± 0.087
- EELVKLQGERVRGLKQQKASAELIEDEVAKLLKLKAQL [E26D] — within error, -0.009 ± 0.096
- EELVKLQGERVRGLKQQKASAELIEHEVAKLLKLKAQL [E26H] — higher, 0.284 ± 0.12
- EELVKLQGERVRGLKQQKASAELIECEVAKLLKLKAQL [E26C] — within error, -0.024 ± 0.085
- EELVKLQGERVRGLKQQKASAELIEWEVAKLLKLKAQL [E26W] — lower, -0.594 ± 0.12
- EELVKLQGERVRGLKQQKASAELIEFEVAKLLKLKAQL [E26F] — within error, -0.038 ± 0.083
- EELVKLQGERVRGLKQQKASAELIEMEVAKLLKLKAQL [E26M] — higher, 0.168 ± 0.1
- EELVKLQGERVRGLKQQKASAELIEIEVAKLLKLKAQL [E26I] — within error, 0.086 ± 0.13
- EELVKLQGERVRGLKQQKASAELIESEVAKLLKLKAQL [E26S] — higher, 0.184 ± 0.074
- EELVKLQGERVRGLKQQKASAELIEREVAKLLKLKAQL [E26R] — within error, 0.1 ± 0.08
- EELVKLQGERVRGLKQQKASAELIEPEVAKLLKLKAQL [E26P] — within error, -0.024 ± 0.084
- EELVKLQGERVRGLKQQKASAELIEGEVAKLLKLKAQL [E26G] — within error, -0.146 ± 0.11
- EELVKLQGERVRGLKQQKASYELIEEEVAKLLKLKAQL [A21Y] — within error, -0.208 ± 0.11
- EELVKLQGERVRGLKQQKASGELIEEEVAKLLKLKAQL [A21G] — within error, -0.151 ± 0.078
- EELVKLQGERVRGLKQQKASIELIEEEVAKLLKLKAQL [A21I] — within error, -0.101 ± 0.12
- EELVKLQGERVRGLKQQKASVELIEEEVAKLLKLKAQL [A21V] — within error, -0.161 ± 0.082
- EELVKLQGERVRGLKQQKASPELIEEEVAKLLKLKAQL [A21P] — higher, 0.184 ± 0.072
- EELVKLQGERVRGLKQQKASTELIEEEVAKLLKLKAQL [A21T] — within error, -0.006 ± 0.11
- EELVKLQGERVRGLKQQKASQELIEEEVAKLLKLKAQL [A21Q] — within error, 0.039 ± 0.13
- EELVKLQGERVRGLKQQKASHELIEEEVAKLLKLKAQL [A21H] — within error, -0.004 ± 0.086
- EELVKLQGERVRGLKQQKASMELIEEEVAKLLKLKAQL [A21M] — within error, 0.116 ± 0.12
- EELVKLQGERVRGLKQQKASLELIEEEVAKLLKLKAQL [A21L] — within error, -0.058 ± 0.096
- EELVKLQGERVRGLKQQKASSELIEEEVAKLLKLKAQL [A21S] — within error, 0.072 ± 0.096
- EELVKLQGERVRGLKQQKASKELIEEEVAKLLKLKAQL [A21K] — within error, 0.055 ± 0.21
- EELVKLQGERVRGLKQQKASWELIEEEVAKLLKLKAQL [A21W] — lower, -0.49 ± 0.12
- EELVKLQGERVRGLKQQKASNELIEEEVAKLLKLKAQL [A21N] — within error, 0.119 ± 0.13
- EELVKLQGERVRGLKQQKASRELIEEEVAKLLKLKAQL [A21R] — within error, -0.086 ± 0.071
- EELVKLQGERVRGLKQQKASEELIEEEVAKLLKLKAQL [A21E] — within error, 0.085 ± 0.2
- EELVKLQGERVRGLKQQKASDELIEEEVAKLLKLKAQL [A21D] — within error, 0.13 ± 0.097
- EELVKLQGERVRGLKQQKASFELIEEEVAKLLKLKAQL [A21F] — within error, -0.075 ± 0.11
- EELVKLQGERVRGLKQQKASCELIEEEVAKLLKLKAQL [A21C] — within error, -0.202 ± 0.17
- EELVKLQGERVRGLKQQKASAWLIEEEVAKLLKLKAQL [E22W] — lower, -0.577 ± 0.16
- EELVKLQGERVRGLKQQKASATLIEEEVAKLLKLKAQL [E22T] — within error, 0.091 ± 0.08
- EELVKLQGERVRGLKQQKASAVLIEEEVAKLLKLKAQL [E22V] — within error, 0.052 ± 0.1
- EELVKLQGERVRGLKQQKASAALIEEEVAKLLKLKAQL [E22A] — within error, 0.069 ± 0.081
- EELVKLQGERVRGLKQQKASAYLIEEEVAKLLKLKAQL [E22Y] — lower, -0.288 ± 0.11
- EELVKLQGERVRGLKQQKASADLIEEEVAKLLKLKAQL [E22D] — within error, 0.04 ± 0.1
- EELVKLQGERVRGLKQQKASANLIEEEVAKLLKLKAQL [E22N] — within error, 0.055 ± 0.12
- EELVKLQGERVRGLKQQKASAGLIEEEVAKLLKLKAQL [E22G] — within error, -0.03 ± 0.096
- EELVKLQGERVRGLKQQKASARLIEEEVAKLLKLKAQL [E22R] — within error, -0.023 ± 0.079
- EELVKLQGERVRGLKQQKASACLIEEEVAKLLKLKAQL [E22C] — within error, -0.107 ± 0.096
- EELVKLQGERVRGLKQQKASAPLIEEEVAKLLKLKAQL [E22P] — within error, -0.007 ± 0.1
- EELVKLQGERVRGLKQQKASAQLIEEEVAKLLKLKAQL [E22Q] — within error, 0.13 ± 0.1
- EELVKLQGERVRGLKQQKASAKLIEEEVAKLLKLKAQL [E22K] — within error, 0.075 ± 0.12
- EELVKLQGERVRGLKQQKASALLIEEEVAKLLKLKAQL [E22L] — within error, -0.149 ± 0.081
- EELVKLQGERVRGLKQQKASAILIEEEVAKLLKLKAQL [E22I] — within error, -0.156 ± 0.1
- EELVKLQGERVRGLKQQKASAFLIEEEVAKLLKLKAQL [E22F] — lower, -0.311 ± 0.091
- EELVKLQGERVRGLKQQKASAHLIEEEVAKLLKLKAQL [E22H] — within error, -0.156 ± 0.14
